B1: NEK8 (parent)
chain: YTFGSNQHGQLGTNTRRGSRAPCK
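Also: lentivirally expressed fusions sorted by FACS into six bins by GFP to DsRed ratio, PSI derived from sequencing read proportions per bin multiplied by bin number.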

The variants in the data set derive from B1. As to the kind of experiment: protein stability index of a GFP-peptide fusion (GPS, HEK-293T) (PSI 1-6); higher = more stable. As to conditions: c terminus: a fixed tail appended.
As for YTFGSNTHGQLGTNTRRGSRAPCK [Q7T], the protein stability index is 4.28.
For YTFGSNIHGQLGTNTRRGSRAPCK [Q7I] the value was 3.45.
On to YTFGSNLHGQLGTNTRRGSRAPCK [Q7L], for which the protein stability index turned out to be 2.28.
For the variant YTFGSNMHGQLGTNTRRGSRAPCK [Q7M], the protein stability index came to 3.66.
Regarding YTFGSNSHGQLGTNTRRGSRAPCK [Q7S], the protein stability index was found to be 3.58.
Regarding YTFGSNAHGQLGTNTRRGSRAPCK [Q7A], the protein stability index is 3.55.
YTFGSNGHGQLGTNTRRGSRAPCK [Q7G]: the protein stability index was found to be 4.07.
YTFGSNWHGQLGTNTRRGSRAPCK [Q7W]: the protein stability index turned out to be 2.73.
Regarding YTFGSNKHGQLGTNTRRGSRAPCK [Q7K], the protein stability index is 3.8.
For YTFGSNVHGQLGTNTRRGSRAPCK [Q7V], the protein stability index amounted to 3.84.
Take YTFGSNFHGQLGTNTRRGSRAPCK [Q7F]: the protein stability index came to 1.54.
For YTFGSNYHGQLGTNTRRGSRAPCK [Q7Y] the value was 3.09; for YTFGSNNHGQLGTNTRRGSRAPCK [Q7N], 4.06.
Consider YTFGSNEHGQLGTNTRRGSRAPCK [Q7E], for which the protein stability index was 4.2.
With YTFGSNHHGQLGTNTRRGSRAPCK [Q7H], the protein stability index stood at 3.84.
With YTFGSNCHGQLGTNTRRGSRAPCK [Q7C], the protein stability index worked out at 3.59.
As for YTFGSNDHGQLGTNTRRGSRAPCK [Q7D], the protein stability index came out at 3.98.
Consider YTFGSNPHGQLGTNTRRGSRAPCK [Q7P], for which the protein stability index was 3.81.
For YTFGSNRHGQLGTNTRRGSRAPCK [Q7R] the value was 3.81; for YTFGSNQGGQLGTNTRRGSRAPCK [H8G], 3.61; for YTFGSNQNGQLGTNTRRGSRAPCK [H8N], 3.99.
In the case of YTFGSNQRGQLGTNTRRGSRAPCK [H8R] it was 3.92; in that of YTFGSNQQGQLGTNTRRGSRAPCK [H8Q], 3.92.
Take YTFGSNQDGQLGTNTRRGSRAPCK [H8D]: the protein stability index is 4.15.
As for YTFGSNQVGQLGTNTRRGSRAPCK [H8V], the protein stability index was determined as 4.01.
As for YTFGSNQKGQLGTNTRRGSRAPCK [H8K], the protein stability index amounted to 4.
With YTFGSNQIGQLGTNTRRGSRAPCK [H8I], the protein stability index worked out at 3.48.
With YTFGSNQPGQLGTNTRRGSRAPCK [H8P], the protein stability index worked out at 3.97.
Consider YTFGSNQAGQLGTNTRRGSRAPCK [H8A], for which the protein stability index worked out at 3.98.
In the case of YTFGSNQEGQLGTNTRRGSRAPCK [H8E] it was 4.47; in that of YTFGSNQMGQLGTNTRRGSRAPCK [H8M], 3.75.
Take YTFGSNQSGQLGTNTRRGSRAPCK [H8S]: the protein stability index was 3.77.
For YTFGSNQYGQLGTNTRRGSRAPCK [H8Y], the protein stability index turned out to be 3.36.
For YTFGSNQCGQLGTNTRRGSRAPCK [H8C] the value was 3.94.
In the case of YTFGSNQWGQLGTNTRRGSRAPCK [H8W] it was 2.36; in that of YTFGSNQTGQLGTNTRRGSRAPCK [H8T], 3.87.
With YTFGSNQLGQLGTNTRRGSRAPCK [H8L], the protein stability index worked out at 3.37.
On to YTFGSNQFGQLGTNTRRGSRAPCK [H8F], for which the protein stability index was 3.23.
For YTFGSNQHRQLGTNTRRGSRAPCK [G9R] the value was 3.94; for YTFGSNQHYQLGTNTRRGSRAPCK [G9Y], 2.23; for YTFGSNQHNQLGTNTRRGSRAPCK [G9N], 3.98.
As to YTFGSNQHAQLGTNTRRGSRAPCK [G9A], the protein stability index stood at 3.39.
As for YTFGSNQHSQLGTNTRRGSRAPCK [G9S], the protein stability index came out at 4.15.
With YTFGSNQHEQLGTNTRRGSRAPCK [G9E], the protein stability index was found to be 3.98.
As to YTFGSNQHWQLGTNTRRGSRAPCK [G9W], the protein stability index was determined as 2.16.
For YTFGSNQHPQLGTNTRRGSRAPCK [G9P], the protein stability index is 3.38.
On to YTFGSNQHLQLGTNTRRGSRAPCK [G9L], for which the protein stability index turned out to be 3.19.
Take YTFGSNQHQQLGTNTRRGSRAPCK [G9Q]: the protein stability index came to 3.94.
For the variant YTFGSNQHCQLGTNTRRGSRAPCK [G9C], the protein stability index is 3.48.
YTFGSNQHFQLGTNTRRGSRAPCK [G9F]: the protein stability index was 2.1.
Regarding YTFGSNQHMQLGTNTRRGSRAPCK [G9M], the protein stability index worked out at 3.19.
As to YTFGSNQHVQLGTNTRRGSRAPCK [G9V], the protein stability index is 2.78.
Take YTFGSNQHIQLGTNTRRGSRAPCK [G9I]: the protein stability index turned out to be 3.05.
For YTFGSNQHKQLGTNTRRGSRAPCK [G9K] the value was 4.12; for YTFGSNQHDQLGTNTRRGSRAPCK [G9D], 4.11; for YTFGSNQHHQLGTNTRRGSRAPCK [G9H], 4.16.
In the case of YTFGSNQHTQLGTNTRRGSRAPCK [G9T] it was 3.82; in that of YTFSSNQHGQLGTNTRRGSRAPCK [G4S], 3.66.
In the case of YTFYSNQHGQLGTNTRRGSRAPCK [G4Y], the protein stability index stood at 3.42.
YTFWSNQHGQLGTNTRRGSRAPCK [G4W]: the protein stability index is 2.91.
For YTFPSNQHGQLGTNTRRGSRAPCK [G4P] the value was 4.19; for YTFESNQHGQLGTNTRRGSRAPCK [G4E], 4.33; for YTFFSNQHGQLGTNTRRGSRAPCK [G4F], 3.64.
As for YTFHSNQHGQLGTNTRRGSRAPCK [G4H], the protein stability index was found to be 3.91.
For YTFNSNQHGQLGTNTRRGSRAPCK [G4N] the value was 3.82.
YTFVSNQHGQLGTNTRRGSRAPCK [G4V]: the protein stability index was 4.2.
As for YTFMSNQHGQLGTNTRRGSRAPCK [G4M], the protein stability index amounted to 3.44.
As to YTFKSNQHGQLGTNTRRGSRAPCK [G4K], the protein stability index is 3.6.
For the variant YTFQSNQHGQLGTNTRRGSRAPCK [G4Q], the protein stability index was found to be 4.04.
Regarding YTFLSNQHGQLGTNTRRGSRAPCK [G4L], the protein stability index was found to be 3.99.
As for YTFTSNQHGQLGTNTRRGSRAPCK [G4T], the protein stability index was 3.54.
For YTFRSNQHGQLGTNTRRGSRAPCK [G4R] the value was 4.36; for YTFISNQHGQLGTNTRRGSRAPCK [G4I], 3.72.
YTFGSNQHGQTGTNTRRGSRAPCK [L11T]: the protein stability index worked out at 4.43.
For YTFGSNQHGQEGTNTRRGSRAPCK [L11E] the value was 4.53.
Consider YTFGSNQHGQPGTNTRRGSRAPCK [L11P], for which the protein stability index turned out to be 4.22.
With YTFGSNQHGQMGTNTRRGSRAPCK [L11M], the protein stability index was 4.01.
Take YTFGSNQHGQCGTNTRRGSRAPCK [L11C]: the protein stability index is 4.02.
For YTFGSNQHGQKGTNTRRGSRAPCK [L11K] the value was 3.56; for YTFGSNQHGQNGTNTRRGSRAPCK [L11N], 4.3.
Take YTFGSNQHGQHGTNTRRGSRAPCK [L11H]: the protein stability index amounted to 4.23.
Take YTFGSNQHGQDGTNTRRGSRAPCK [L11D]: the protein stability index stood at 4.49.
In the case of YTFGSNQHGQVGTNTRRGSRAPCK [L11V], the protein stability index was 4.1.
For YTFGSNQHGQRGTNTRRGSRAPCK [L11R], the protein stability index was 4.65.
As to YTFGSNQHGQAGTNTRRGSRAPCK [L11A], the protein stability index was 4.38.
As to YTFGSNQHGQFGTNTRRGSRAPCK [L11F], the protein stability index amounted to 3.76.
For YTFGSNQHGQYGTNTRRGSRAPCK [L11Y], the protein stability index is 3.95.
In the case of YTFGSNQHGQWGTNTRRGSRAPCK [L11W], the protein stability index is 3.22.
As to YTFGSNQHGQQGTNTRRGSRAPCK [L11Q], the protein stability index was found to be 4.49.
Regarding YTFGSNQHGQGGTNTRRGSRAPCK [L11G], the protein stability index is 4.53.
For YTFGSNQHGQIGTNTRRGSRAPCK [L11I] the value was 3.93; for YTFGSNQHGQSGTNTRRGSRAPCK [L11S], 4.94; for YTFGSNQHGFLGTNTRRGSRAPCK [Q10F], 3.33.
As to YTFGSNQHGVLGTNTRRGSRAPCK [Q10V], the protein stability index amounted to 3.31.

The values are drawn from the supplement of paper PMC10567573.
